This test has as its target recombinant human soluble catechol-O-methyltransferase (human) (UniProt P21964).

As for bovine lactoferrin (natural protein), the IC50 of inhibition of COMT activity (methyl transfer from 14C-SAM to DBA) came to 1600 nM.

The values above are taken from article PMC6152271.
